These results are taken from patent publication US20260125469A1 (Hoffmann-La Roche, published 2026).

In test [1] the target is T1, human CD19 on cells (Nalm-6, Z-138) (human, UniProt P15391 20-556).
T1 sequence (looked up): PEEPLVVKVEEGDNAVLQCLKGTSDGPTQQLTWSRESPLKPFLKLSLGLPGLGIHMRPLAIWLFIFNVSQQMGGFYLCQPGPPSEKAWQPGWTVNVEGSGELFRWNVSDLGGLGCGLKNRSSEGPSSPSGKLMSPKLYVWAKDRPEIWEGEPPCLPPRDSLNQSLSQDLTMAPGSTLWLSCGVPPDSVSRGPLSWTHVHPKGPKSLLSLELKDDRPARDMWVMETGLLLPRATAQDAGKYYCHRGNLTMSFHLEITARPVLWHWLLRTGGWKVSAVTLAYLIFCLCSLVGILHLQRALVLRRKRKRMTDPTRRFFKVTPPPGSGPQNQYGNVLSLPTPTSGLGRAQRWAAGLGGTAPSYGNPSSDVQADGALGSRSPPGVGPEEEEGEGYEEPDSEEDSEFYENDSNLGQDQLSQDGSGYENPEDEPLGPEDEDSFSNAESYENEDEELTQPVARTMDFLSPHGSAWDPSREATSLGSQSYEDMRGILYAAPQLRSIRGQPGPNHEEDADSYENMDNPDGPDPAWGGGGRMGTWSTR
Put plainly: cell-based or functional assay.

In test [2] the target is T2, human CD3 on cells (CD3ε) (human, UniProt P07766 23-207).
T2 construct: CD3 complex as it stands on Jurkat cells or primary T cells; also called CD3-expressing Jurkat cells; CD3-expressing T cells
Briefly: flow cytometry on Jurkat cells. The procedure: (§1) The binding of the CD19-TCB molecules prepared in Example 15 to human CD19- and CD3-expressing target cells was tested. Two CD19-expressing cell lines with different levels of CD19 expression were used. Nalm-6, an acute lymphoblastic leukemia (ALL) cell line with high CD 19 expression and Z-138 (Mantle cell lymphoma) with average expression levels. CD3-binding was assessed using immortalized T lymphocyte line (Jurkat cell line). Briefly, cells were harvested, counted, checked for viability and resuspended at 1×10⁶ cells/ml in FACS buffer (PBS+2% FCS+5 mM EDTA+0.25% sodium azide). […] Binding curves and the EC50 values related to binding were calculated using GraphPad Prism 7.
For orientation: In flow cytometry, cells or beads pass a laser one at a time.

In test [3] the target is T1, human CD19 on cells (Nalm-6, Z-138). Briefly: flow cytometry on Nalm-6 cells. The procedure:
as §1

Test [4] addresses T3, CD19 extracellular domain (ECD)-Fc fusion (human, UniProt P01857 104-328 = IgG part).
T3 construct: Monovalent CD19 ECD on a knob-into-hole Fc; also called CD19 antigen; recombinant human CD19
Briefly: SPR, TCB captured by anti-PG antibody, CD19 ECD-Fc as analyte, 25°C. As for the experimental part:
(§2) SPR experiments were performed, using the CD19-TCB molecules prepared in Example 15, on a Biacore T200 instrument at 25° C. with HBS-EP+ as running buffer (0.01 M HEPES pH 7.4, 0.15 M NaCl, 0.005% Surfactant P20 (GE Healthcare, #BR-1006-69)). Anti-PG antibody (see Example 3) was directly immobilized by amine coupling on a C1 chip (GE Healthcare). The different TCB molecules were captured at 25 nM. Three-fold dilution series (in HBS-EP from 0.14 to 100 nM) of the CD19 antigen (CD19 extracellular domain (ECD)-Fc fusion; see SEQ ID NOs 99 and 100) or the CD3 antigen (see Example 3, SEQ ID NOs 41 and 42) were passed over the ligand at 30 μl/min for 240 s to record the association phase. The dissociation phase was monitored for 1500 s (CD19 antigen) or 800 s (CD3 antigen)s and triggered by switching from the sample solution to HBS-EP+. The chip surface was regenerated after every cycle using two injections of 10 mM glycine pH 2.1 for 60 sec. Bulk refractive index differences were corrected for by subtracting the response obtained on the reference flow cell (without captured TCB). The affinity constants were derived from the kinetic rate constants by fitting to a 1:1 Langmuir binding using the Biaeval software (GE Healthcare). The measurement was performed with three independent dilution series.
On the technique in general: Surface plasmon resonance follows binding to a sensor surface in real time, without labels.

Test [5] deals with T4, Human CD3ε stalk-Fc(knob)-Avi/CD3δ stalk-Fc(hole) (human).
T4 construct: Heterodimer of CD3 delta and CD3 epsilon ectodomains fused to human Fc with knob-into-hole; also called human CD3ε/δ; CD3 antigen
Put plainly: SPR, TCB captured by anti-PG antibody, human CD3ε/δ-Fc as analyte, 25°C. The procedure:
as §2

Test [6] addresses T4, Human CD3ε stalk-Fc(knob)-Avi/CD3δ …. Briefly: SPR on immobilized human CD3ε/δ after stress, relative to sample kept at -80°C pH 6. As for the experimental part: All SPR experiments were performed on a Biacore T200 instrument (GE Healthcare) at 25° C. with HBS-P+ (10 mM HEPES, 150 mM NaCl pH 7.4, 0.05% Surfactant P20) as running and dilution buffer. Biotinylated human CD3ε/δ (see Example 3, SEQ ID NOs 41 and 42) as well as biotinylated anti-huIgG (Capture Select, Thermo Scientific, #7103262100) were immobilized on a Series S Sensor Chip SA (GE Healthcare, #29104992), resulting in surface densities of at least 1000 resonance units (RU). Anti-CD3 antibodies with a concentration of 2 μg/ml were injected for 30 s at a flow rate of 5 μl/min, and dissociation was monitored for 120 s. The surface was regenerated by injecting 10 mM glycine pH 1.5 for 60 s. Bulk refractive index differences were corrected by subtracting blank injections and by subtracting the response obtained from a blank control flow cell. For evaluation, the binding response 5 seconds after injection end was taken. To normalize the binding signal, the CD3 binding was divided by the anti-huIgG response (the signal (RU) obtained upon capture of the CD3 antibody on the immobilized anti-huIgG antibody). The relative binding activity was calculated by referencing each temperature stressed sample to the corresponding, non-stressed sample.
The experiment was performed as described in Example 4, using the monovalent IgG molecules prepared in Example 19.

Test [7] shares this target. Put plainly: SPR, monovalent IgG captured by anti-PG antibody, antigen as analyte, 25°C; bad fit quality per footnote. The procedure:
(§3) SPR experiments were performed as described in Example 3, with the monovalent IgG molecules prepared in Example 19.
(§4) To analyze the interaction to CD3, IgG molecules were captured for 240 s at 50 nM with a flow rate of 5 μl/min. Human and cynomolgus CD3F stalk-Fc(knob)-Avi/CD36-stalk-Fc(hole) were passed at a concentration of 0.061-250 nM with a flow rate of […] through the flow cells for 300 s. The dissociation was monitored for 800 s.

Test [8] deals with T5, Cynomolgus CD3ε stalk-Fc(knob)-Avi/CD3δ stalk-Fc(hole) (cynomolgus).
T5 construct: also called cynomolgus CD3ε/δ
The test is described as above. The procedure:
as §3, §4

T2 sequence (P07766 23-207 limits assumed): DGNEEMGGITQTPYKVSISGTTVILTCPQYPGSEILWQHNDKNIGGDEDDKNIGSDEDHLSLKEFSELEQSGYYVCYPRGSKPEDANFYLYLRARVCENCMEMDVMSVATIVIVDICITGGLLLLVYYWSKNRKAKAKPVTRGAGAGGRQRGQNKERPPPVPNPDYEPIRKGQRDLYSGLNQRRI

B1: CD19-TCB, CD19(018) CD3 variant P035.093 (bispecific antibody, human IgG1, kappa, L234A L235A)
heavy 1: not shown
heavy 2: QVQLVQSGAEVKKPGASVKVSCKASGYTFTDYIMHWVRQAPGQGLEWMGYINPYNDGSKYTEKFQGRVTMTSDTSISTAYMELSRLRSDDTAVYYCARGTYYYGSALFDYWGQGTTVTVSSASTKGPSVFPLAPSSKSTSGGTAALGCLVEDYFPEPVTVSWNSGALTSGVHTFPAVLQSSGLYSLSSVVTVPSSSLGTQTYICNVNHKPSNTKVDEKVEPKSCDKTHTCPPCPAPEAAGGPSVFLFPPKPKDTLMISRTPEVTCVVVDVSHEDPEVKFNWYVDGVEVHNAKTKPREEQYNSTYRVVSVLTVLHQDWLNGKEYKCKVSNKALGAPIEKTISKAKGQPREPQVCTLPPSRDELTKNQVSLSCAVKGFYPSDIAVEWESNGQPENNYKTTPPVLDSDGSFFLVSKLTVDKSRWQQGNVFSCSVMHEALHNHYTQKSLSLSP
light 1: DIVMTQTPLSLSVTPGQPASISCKSSQSLENPNGNTYLNWYLQKPGQSPQLLIYRVSKRFSGVPDRFSGSGSGTDFTLKISRVEAEDVGVYYCLQLTHVPYTFGQGTKLEIKRTVAAPSVFIFPPSDRKLKSGTASVVCLLNNFYPREAKVQWKVDNALQSGNSQESVTEQDSKDSTYSLSSTLTLSKADYEKHKVYACEVTHQGLSSPVTKSFNRGEC
light 2: EVQLLESGGGLVQPGGSLRLSCAASGFTFSSYAMNWVRQAPGKGLEWVSRIRSKYNNYATYYADSVKGRFTISRDDSKNTLYLQMNSLRAEDTAVYYCVRASNFPASYVSYFAYWGQGTLVTVSSASVAAPSVFIFPPSDEQLKSGTASVVCLLNNFYPREAKVQWKVDNALQSGNSQESVTEQDSKDSTYSLSSTLTLSKADYEKHKVYACEVTHQGLSSPVTKSFNRGEC
notes: 2+1 IgG CrossFab, inverted; human IgG1 Fc, knob-into-hole, PGLALA
As a reminder, the EC50 is the midpoint of the concentration-response curve. What is called Kd is the equilibrium constant for the complex coming apart. Broadly, the koff is a measure of how fast the partners let go of each other. Lower therefore signals a long-lived complex. The kon is the rate constant with which the complex forms. A lower kon goes with slow association. Take B1: in test [1], the “EC50 (pM) of tumor cell lysis, Nalm-6 target cells” value stood at 0.9 pM and the “EC50 (pM) of tumor cell lysis, Z-138 target cells” value was determined as 8.1 pM. In test [2], this molecule showed a concentration giving a half-maximal response (EC50) of 38 nM. In addition, in test [3], the EC50 worked out at 1.2 nM. In test [4], this molecule had an equilibrium dissociation constant (Kd) of 1.27 nM, a koff of 0.000392 s⁻¹, a kon of 310000 M⁻¹ s⁻¹ and a t1/2 of 29.5 min. In test [5], this molecule came in with a dissociation constant Kd of 0.37 nM, a koff of 0.00135 s⁻¹, a kon of 3.68e+06 M⁻¹ s⁻¹ and a t1/2 of 8.6 min.

B2: anti-CD3 antibody clone P004.042 in monovalent IgG format (antibody)
heavy: not shown
chain: DKTHTCPPCPAPEAAGGPSVFLFPPKPKDTLMISRTPEVTCVVVDVSHEDPEVKFNWYVDGVEVHNAKTKPREEQYNSTYRVVSVLTVLHQDWLNGKEYKCKVSNKALGAPIEKTISKAKGQPREPQVCTLPPSRDELTKNQVSLSCAVKGFYPSDIAVEWESNGQPENNYKTTPPVLDSDGSFFLVSKLTVDKSRWQQGNVFSCSVMHEALHNHYTQKSLSLSP
light: EVQLLESGGGLVQPGGSLRLSCAASGFQFDNYAMNWVRQAPGKGLEWVSRIRTKYNEYATYYADSVKGRFTISRDDSKNTLYLQMNSLRAEDTAVYYCVRASNFPQSYVSYFGYWGQGTLVTVSSASVAAPSVFIFPPSDEQLKSGTASVVCLLNNFYPREAKVQWKVDNALQSGNSQESVTEQDSKDSTYSLSSTLTLSKADYEKHKVYACEVTHQGLSSPVTKSFNRGEC
notes: also called monovalent IgG P004.042
Turning to B2, in test [6], the “binding activity [%] after 2 weeks at pH 6.0/40°C” value worked out at 101% and the “binding activity [%] after 2 weeks at pH 7.4/37°C” value was 98%. In test [7], the Kd was determined as 1.36 nM, the koff is 0.00852 s⁻¹, the kon was 6.28e+06 M⁻¹ s⁻¹ and the t1/2 stood at 1.36 min. For the same molecule, in test [8], the Kd was determined as 0.439 nM, the koff turned out to be 0.00809 s⁻¹, the kon stood at 1.85e+07 M⁻¹ s⁻¹ and the t1/2 turned out to be 1.43 min.
